In patent publication US10689423B2, “CTLA4-binding protein peptide-linker masks” (City of Hope, priority 2015, dated 2020):

Columns and labels:
[1] = tested on: tumor-infiltrating lymphocytes (TILs) in B16 tumor tissues; assay: In vivo detection of mLcn2 variants in B16 tumor tissues (IHC); conditions: i.v. 100 μg, melanoma-bearing mice, tumor samples 72 hr post-dose; listed as unmasked (MMP9-pretreated) mLcn2
Experimental: FIG. 4: In vivo detection of mLcn2 variants (CTLA-4 binding protein variants) in B16 tumor tissues.
(§1) FIG. 9: Biodistribution of mLcn2-Fc constructs in vivo. (A-C) Naïve mice were injected i.v. with 100 μg of indicated mLcn2-Fc construct and tissue samples were collected 48 hr. post-dose. Cryosections were stained for CD4 or CD8 (medium gray) and human IgG (light gray) from the thymus (A), spleen (B), and pituitary gland (C, IgG only). (D) Melanoma-bearing mice were injected as above and tumor samples were collected 72 hr. post-dose. 4′,6-diamidino-2-phenylindole (DAPI) nuclear staining shown in dark gray.
FIG. 17: Melanoma-bearing mice were injected i.v. with 100 μg of indicated mLcn2-Fc construct and tumor samples were collected 72 hr. post-dose. Cryosections were stained for CD4 or CD8 (medium gray) and human IgG (light gray). […] 4′,6-diamidino-2-phenylindole (DAPI) nuclear staining shown in dark gray.
(§2) In these experiments constructs were injected i.v. into C57/B16 mice bearing B16 melanomas. Three days after injection, tumor and tissue samples were collected and doublestained using antibodies recognizing either CD4 or CD8 and mLcn2 (e.g. human IgG-Fc). Membranes of both intratumoral CD4+ and CD8+ T cells were decorated with mLcn2 which was not detected on other cell types.

[2] = tested on: CD4/CD8 negative cells in the spleen; assay: In vivo binding of mLcn2 constructs in the spleen; parameters: species or system mice; conditions: not shown; potentially due to FcR binding
Experimental: as §1
FIG. 16: Naïve mice were injected i.v. with 100 μg of indicated mtLCN2-Fc construct and tissue samples were collected 48 hr. post-dose. Cryosections were stained for CD4 or CD8 (medium gray) and human IgG (light gray) from the spleen.
as §2

CTLA-4 = assay: Size-exclusion chromatography analysis of CTLA-4 binding to mLcn2-Fc constructs
CTLA-4, sequence (P16410 36-161 limits assumed): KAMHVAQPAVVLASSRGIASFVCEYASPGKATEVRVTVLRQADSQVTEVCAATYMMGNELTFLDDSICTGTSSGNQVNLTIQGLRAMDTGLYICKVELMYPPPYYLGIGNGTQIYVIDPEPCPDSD

[3] = tested on: human CTLA4-Fc on Tni insect cells; assay: Flow cytometry of Tni insect cells transiently expressing human CTLA4-Fc; type: cell-based; conditions: Alexa Fluor-647 conjugated variants
human CTLA4-Fc on Tni insect cells, sequence (P16410 36-161 limits assumed): as above
From the text: FIG. 10C: Flow cytometry analysis of Tni insect cells induced to transiently express human CTLA4-Fc. Cells were stained with Alexa Fluor-647 conjugated mLcn2-Fc variants and gated for Forward scatter/Side scatter, DAPI^−, singlet size (pulse width), and APC. Uninfected cells stained with mLcn2-Fc are shown in grey as a negative control.

pituicytes = assay: In vivo binding of mLcn2 variants to cells within the pituitary gland; conditions: naïve mice, i.v. 100 μg, 48 hr post-dose, human IgG staining
Experimental: FIG. 5: Binding of CTLA-4 antagonist mLcn2 variants to cells within the pituitary gland.
as §1
FIG. 18: Naïve mice were injected i.v. with 100 μg of indicated mLcn2-Fc construct and tissue samples were collected 48 hr. post-dose. Cryosections were stained for human IgG (light gray).
as §2

CTLA-4-Fc = assay: SPR kinetics of monomeric mLCN2 and dimeric mLCN2-Fc on immobilized CTLA-4-Fc; type: binding; conditions: dimeric CTLA-4-Fc immobilized at medium density on CM5 chip
CTLA-4-Fc, sequence (P16410 36-161 limits assumed): as above
Experimental: FIG. 10A: SPR analysis. Dimeric CTLA-4-Fc was immobilized at medium density to a CM5 chip. A range of 3-1000 nM monomeric mLCN2 (top) and 3-300 nM dimeric mLCN2-Fc (bottom) analytes were used for kinetics analyses. […] Concentration of analytes is 1000; 300; 30; and 3 nM.

[4] = tested on: murine, primate and human CTLA-4; assay: CTLA-4 species cross-reactivity of mLcn2; type: binding

| Molecule | staining of CD4 or CD8 TILs in tumor [1] | binding in the spleen [2] | CTLA-4 binding by SEC (CTLA-4; FIG. 3B) | SEC elution volume of construct incubated with CTLA-4 (CTLA-4; Superdex 200, apo CTLA-4 13.0 mL, apo constructs ~12.7 mL) | binding to CTLA4-Fc expressing Tni cells [3] | binding to pituitary gland cells (pituicytes) | ka (CTLA-4-Fc) | kd (CTLA-4-Fc) | CTLA-4 binding across species [4] |
| --- | --- | --- | --- | --- | --- | --- | --- | --- | --- |
| Unmasked mLcn2-Fc: masked mLcn2-Fc treated with MMP9, mask released (protein, left off: small tags and cut ends; a dimerising Fc or GST, masked mLcn2-Fc treated with MMP9, mask released) QDSTSDLIPAPPLSKVPLQQNFQDNQFHGKWYVVGLAGNRILRDDQHPMNMYATIYELKEDKSYNVTSVISSHKKCEYTIATFVPGSQPGEFTLGNIKSYGDKTSYLVRVVSTDYNQYAVVFFKLAEDNAEFFAITIYGRTKELASELKENFIRFSKSLGLPENHIVFPVPIDQCIDG | membrane staining of tumor-infiltrating lymphocytes (TILs) | bound to CD4/CD8 negative cells in the spleen | binding of CTLA-4 only to unmasked mLcn2-Fc constructs | 11.3 mL | showed binding to cells | bound equally well to pituicytes |  |  |  |
| mLcn2-Fc: mLcn2 fused to IgG1 Fc without a mask fused to the N-terminus (positive control) (protein, left off: a dimerising Fc or GST) QDSTSDLIPAPPLSKVPLQQNFQDNQFHGKWYVVGLAGNRILRDDQHPMNMYATIYELKEDKSYNVTSVISSHKKCEYTIATFVPGSQPGEFTLGNIKSYGDKTSYLVRVVSTDYNQYAVVFFKLAEDNAEFFAITIYGRTKELASELKENFIRFSKSLGLPENHIVFPVPIDQCIDG |  |  |  |  | showed binding to cells | bound equally well to pituicytes | 1.0 E4 M^−1 s^−1 | could not be determined as it was beyond the limitations of the instrument |  |
| mLCN2: modified lipocalin2 used as a CTLA-4 antagonist, SEQ ID NO:34 (protein, listed as Homo sapiens) QDSTSDLIPAPPLSKVPLQQNFQDNQFHGKWYVVGLAGNRILRDDQHPMNMYATIYELKEDKSYNVTSVISSHKKCEYTIATFVPGSQPGEFTLGNIKSYGDKTSYLVRVVSTDYNQYAVVFFKLAEDNAEFFAITIYGRTKELASELKENFIRFSKSLGLPENHIVFPVPIDQCIDG |  |  |  |  |  | reactivity with non-immune cells in the pituitary glands | 3.6 E4 M^−1 s^−1 | 2.0 E-4 s^−1 | binds to murine, primate and human CTLA-4 |
